Laboratory results taken from patent US20140248278A1, “ANTI-CD22 ANTIGEN BINDING MOLECULES TO TREAT LUNG CANCER AND PROSTATE CANCER” (The Regents of the University of California, priority 2011, published 2014).

Experiments:
[1] = test system: NSCLC lines (H1650, Calu-1, A549); test: In vitro cytotoxicity assay, NSCLC lines; format: cell-based, human; conditions: after 48 hours
Experimental: (§1) FIGS. 2A-C illustrate anti-CD22 mediated cytotoxicity and CD22 internalization. (A) Ligation of CD22 mediates cytotoxicity of NSCLC and NHL B cells. Cells were treated with the anti-CD22 or anti-CD20 mAbs (HB22.7 or rituximab, respectively) (50 ug/ml) for 48 hr then assessed with an MTT assay. (B) Internalization of CD22 was assessed on NSCLC cell lines. The degree of internalization was determined by assessing the cytotoxicity of a carrier protein attached to an anti-mouse mAb (ZAP) compared to a non-cytotoxic control (SAP). HB22.7-ZAP and HB22.7-SAP were assessed in Ramos B-cells (top) and two NSCLC cell lines, A549 and H727 (bottom). […] PBMCs (10:1 PBMC:A549 ratio) were incubated +/− complement (1:10 dilution), or +/− huHB22.7 (50 μg/cc). A549-specific cytotoxicity was assessed with a DELFIA EuTDA cytotoxicity assay and reported as % of control.
(§2) Ramos, A549, or H1650 cells (2-2.5×10^4 per sample) were plated in triplicate in 96 well round bottom plates in a volume of 100 μL per well. Cells were treated for 1 hour with HB22.7, or rituximab to final concentrations of 25 μg/mL. Control cells received media only. […] Viability was assessed by trypan blue exclusion; experiments were done in triplicate and results were expressed as % of control (untreated cells) with the error bars representing the standard deviation.

Ramos NHL cells = test: In vitro cytotoxicity assay, Ramos cells; format: cell-based, human; conditions: after 48 hours
Experimental: as §1, §2

rituximab: anti-CD20 control mAb
cytotoxic response [1]: no cytotoxic response | cytotoxic effects (Ramos NHL cells): cytotoxic effects
